Substitutions are numbered along the chain they refer to.
B1: Antibody No. D6DD3D003 (HU1127-hVH2/hVL1) (antibody, human IgG1, kappa)
heavy: not shown
light: EIVLTQSPATLSLSPGERATLSCRASESVDSYVNSFLHWYQQKPGQAPRLLIYRASNLQSGIPARFSGSGSRTDFTLTISSLEPEDVAVYYCQQSNEDPYTFGQGTKLEIKRTVAAPSVFIFPPSDEQLKSGTASVVCLLNNFYPREAKVQWKVDNALQSGNSQESVTEQDSKDSTYSLSSTLTLSKADYEKHKVYACEVTHQGLSSPVTKSFNRGEC
notes: Humanized IgG1 (hFc)
B2: Antibody No. D6DD3D004 (HU1127-hVH3/hVL1) (antibody, human IgG1, kappa)
heavy: not shown
light: B1 light
notes: Humanized IgG1 (hFc)
B3: Antibody No. D6DD3D002 (HU1127-hVH1/hVL1) (antibody, human IgG1, kappa, V domains shown)
VH: QVQLQESGPGLVKPSQTLSLTCTVSGGSISSDSAWNWIRQHPGKGLEWIGYISYSGSTSYNPSLKSRVTISRDTSKNQFSLKLSSVTAADTAVYYCVRGLRFAYWGQGTLVTVSS
VL: EIVLTQSPATLSLSPGERATLSCRASESVDSYVNSFLHWYQQKPGQAPRLLIYRASNLQSGIPARFSGSGSRTDFTLTISSLEPEDVAVYYCQQSNEDPYTFGQGTKLEIKR
notes: Humanized IgG1 (hFc)
B4: Antibody No. D6DD3D006 (HU1127-hVH5/hVL1) (antibody, human IgG1, kappa)
heavy: not shown
light: B1 light
notes: Humanized IgG1 (hFc)
B5: Antibody No. D6DD3D005 (HU1127-hVH4/hVL1) (antibody, human IgG1, kappa)
heavy: not shown
light: B1 light
notes: Humanized IgG1 (hFc)
B6: Antibody No. D6DD3D013 (HU1127-hVH2/hVL3) (antibody, human IgG1, kappa)
heavy: not shown
light: DIQLTQSPSSLSASVGDRVTITCRASESVDSYVNSFLHWYQQKPGKAPKLLIYRASNLQSGVPSRFSGSGSRTDFTLTISSLQPEDVATYYCQQSNEDPYTFGQGTKLEIKRTVAAPSVFIFPPSDEQLKSGTASVVCLLNNFYPREAKVQWKVDNALQSGNSQESVTEQDSKDSTYSLSSTLTLSKADYEKHKVYACEVTHQGLSSPVTKSFNRGEC
notes: Humanized IgG1 (hFc)
B7: Antibody No. D6DD3D016 (HU1127-hVH5/hVL3) (antibody, human IgG1, kappa)
heavy: not shown
light: B6 light
notes: Humanized IgG1 (hFc)
B8: Antibody No. D6DD3D014 (HU1127-hVH3/hVL3) (antibody, human IgG1, kappa)
heavy: not shown
light: B6 light
notes: Humanized IgG1 (hFc); Parent of the PTM-site-removed antibodies MPDDAD001-005
B9: Antibody No. D6DD3D015 (HU1127-hVH4/hVL3) (antibody, human IgG1, kappa)
heavy: not shown
light: B6 light
notes: Humanized IgG1 (hFc)
B10: Antibody No. D6DD3D012 (HU1127-hVH1/hVL3) (antibody, human IgG1, kappa, V domains shown)
VH: B3 VH
VL: DIQLTQSPSSLSASVGDRVTITCRASESVDSYVNSFLHWYQQKPGKAPKLLIYRASNLQSGVPSRFSGSGSRTDFTLTISSLQPEDVATYYCQQSNEDPYTFGQGTKLEIKR
notes: Humanized IgG1 (hFc)
B11: Antibody No. MPDDAD001 (HU1127-hVH3/hVL3-1) (antibody, IgG1, V domains shown)
VH: B3 VH with V2L, Q16E, H41P
VL: DIQLTQSPSSLSASVGDRVTITCRASESVDSYVDSFLHWYQQKPGKAPKLLIYRASNLQSGVPSRFSGSGSRTDFTLTISSLQPEDVATYYCQQSNEDPYTFGQGTKLEIK
notes: D6DD3D014 with the light chain PTM site NS (VL amino acids 34, 35) changed to DS; Tested as a recombinant antibody with hFc tag, 144 kDa
B12: Antibody No. MPDDAD005 (HU1127-hVH3/hVL3-5) (antibody, V domains shown)
VH: B3 VH with V2L, Q16E, H41P
VL: B11 VL with D34Q
notes: D6DD3D014 with the light chain PTM site NS (VL amino acids 34, 35) changed to QS; Tested as a recombinant antibody with hFc tag, 144 kDa
B13: Antibody No. MPDDAD004 (HU1127-hVH3/hVL3-4) (antibody, V domains shown)
VH: B3 VH with V2L, Q16E, H41P
VL: B11 VL with D34N, S35A
notes: D6DD3D014 with the light chain PTM site NS (VL amino acids 34, 35) changed to NA; Tested as a recombinant antibody with hFc tag, 144 kDa
B14: Antibody No. MPDDAD002 (HU1127-hVH3/hVL3-2) (antibody, V domains shown)
VH: B3 VH with V2L, Q16E, H41P
VL: B11 VL with D34S
notes: D6DD3D014 with the light chain PTM site NS (VL amino acids 34, 35) changed to SS; Tested as a recombinant antibody with hFc tag, 144 kDa
B15: Antibody No. MPDDAD003 (HU1127-hVH3/hVL3-3) (antibody, V domains shown)
VH: B3 VH with V2L, Q16E, H41P
VL: B11 VL with D34T
notes: D6DD3D014 with the light chain PTM site NS (VL amino acids 34, 35) changed to TS; Tested as a recombinant antibody with hFc tag, 144 kDa
B16: Antibody No. D6DD3D001 (HU1127-mVH/mVL) (antibody, human IgG1, kappa, V domains shown)
VH: DVQLQQSGPGLVKPSQSLSLTCTVTGYSITSDSAWNWIRQFPGNRLEWMGYISYSGSTSYNPSLKSRISITRDTSKNQFFLQLNSVTTEDTATYYCVRGLRFAYWGQGTLVTVSS
VL: DIVLTQSPASLAVSLGQRATISCRASESVDSYVNSFLHWYQQKPGQPPKLLIYRASNLQSGIPARFSGSGSRTDFTLTINPVEADDVATYYCQQSNEDPYTFGGGTKLEIKR
notes: Mouse variable domains of Atibuclimab on human IgG1 constant regions (hFc, 146 kDa); also called Original IgG1 antibody; mouse antibody
B17: Antibody No. D6DD3D008 (HU1127-hVH2/hVL2) (antibody, human IgG1, kappa)
heavy: not shown
light: DIVLTQSPDSLAVSLGERATINCRASESVDSYVNSFLHWYQQKPGQPPKLLIYRASNLQSGVPDRFSGSGSRTDFTLTISSLQAEDVAVYYCQQSNEDPYTFGQGTKLEIKRTVAAPSVFIFPPSDEQLKSGTASVVCLLNNFYPREAKVQWKVDNALQSGNSQESVTEQDSKDSTYSLSSTLTLSKADYEKHKVYACEVTHQGLSSPVTKSFNRGEC
notes: Humanized IgG1 (hFc)
B18: Antibody No. D6DD3D007 (HU1127-hVH1/hVL2) (antibody, human IgG1, kappa, V domains shown)
VH: B3 VH
VL: DIVLTQSPDSLAVSLGERATINCRASESVDSYVNSFLHWYQQKPGQPPKLLIYRASNLQSGVPDRFSGSGSRTDFTLTISSLQAEDVAVYYCQQSNEDPYTFGQGTKLEIKR
notes: Humanized IgG1 (hFc)
B19: Antibody No. D6DD3D011 (HU1127-hVH5/hVL2) (antibody, human IgG1, kappa)
heavy: not shown
light: B17 light
notes: Humanized IgG1 (hFc)
B20: Antibody No. D6DD3D010 (HU1127-hVH4/hVL2) (antibody, human IgG1, kappa)
heavy: not shown
light: B17 light
notes: Humanized IgG1 (hFc)
B21: Antibody No. D6DD3D009 (HU1127-hVH3/hVL2) (antibody, human IgG1, kappa)
heavy: not shown
light: B17 light
notes: Humanized IgG1 (hFc)

Key:
[1] = molecular target: T1, Recombinant Human CD14/His Protein (B294801) (human, UniProt P08571 20-352, limits assumed); experiment: SPR (Biacore 8K), antibody captured on Protein A chip, CD14-His analyte 0.78125-25 nM, 1:1 binding
T1 construct: Bought His-tagged recombinant human CD14; also called recombinant human CD14 antigen; CD14 antigen; not shown: histidine tag
T1 sequence (looked up): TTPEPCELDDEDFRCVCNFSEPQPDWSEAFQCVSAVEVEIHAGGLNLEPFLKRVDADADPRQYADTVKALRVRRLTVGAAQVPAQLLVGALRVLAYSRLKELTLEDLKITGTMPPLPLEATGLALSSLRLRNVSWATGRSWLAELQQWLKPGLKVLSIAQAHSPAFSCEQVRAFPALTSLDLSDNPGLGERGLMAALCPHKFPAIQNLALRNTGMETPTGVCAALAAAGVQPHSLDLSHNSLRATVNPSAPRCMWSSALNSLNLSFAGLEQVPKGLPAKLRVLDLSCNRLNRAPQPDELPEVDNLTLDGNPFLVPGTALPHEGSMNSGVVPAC
Description: The Biacore 8K platform was used to test the kinetic and affinity properties of the antibody. The operation was carried out according to the system instructions and indications.
15 humanized antibodies (numbered D6DD3D002-D6DD3D0016) and 1 mouse antibody (number D6DD3D001) were tested. […] The capture concentration was 1 μg/mL. In Table 8-3, the change factor is the ratio of the equilibrium dissociation constant KD of the humanized to mouse antibody, and reflects the change in affinity after humanization.

[2] = molecular target: T1, Recombinant Human CD14/His Protein …; experiment: SPR (Biacore 8K), antibody captured (1 ug/mL) on Protein A chip, CD14-His analyte 0.1953125-25 nM, 1:1 binding
Description: The Biacore 8K platform was used to test the kinetic and affinity properties of the antibody, operating according to system instructions and indications.
Results of Affinity Detection. The affinity of the six antibodies was measured at saturation concentration. […] Change factor is described above.

| Binder | Change Factor (KD relative to mouse antibody D6DD3D001) [1] | Kd [1] [nM] | koff [1] [s⁻¹] | kon [1] [M⁻¹ s⁻¹] | Change Factor (KD relative to mouse antibody D6DD3D001) [2] | Kd [2] [nM] | koff [2] [s⁻¹] | kon [2] [M⁻¹ s⁻¹] |
| --- | --- | --- | --- | --- | --- | --- | --- | --- |
| B1 | 3.34 | 1.62 | 0.00295 | 1.82e+06 | – | – | – | – |
| B2 | 4.1 | 1.99 | 0.00326 | 1.64e+06 | – | – | – | – |
| B3 | 3.57 | 1.73 | 0.00292 | 1.69e+06 | – | – | – | – |
| B4 | 1.24 | 0.602 | 0.000862 | 1.43e+06 | – | – | – | – |
| B5 | 1.09 | 0.529 | 0.000798 | 1.51e+06 | – | – | – | – |
| B6 | 3.32 | 1.61 | 0.00282 | 1.76e+06 | – | – | – | – |
| B7 | 1.39 | 0.672 | 0.000904 | 1.35e+06 | – | – | – | – |
| B8 | 3.71 | 1.8 | 0.00318 | 1.77e+06 | – | – | – | – |
| B9 | 1.1 | 0.532 | 0.000843 | 1.59e+06 | – | – | – | – |
| B10 | 3.69 | 1.79 | 0.00293 | 1.64e+06 | – | – | – | – |
| B11 | – | – | – | – | 8.66 | 7.48 | 0.00633 | 847000 |
| B12 | – | – | – | – | 5.65 | 4.88 | 0.00544 | 1.11e+06 |
| B13 | – | – | – | – | 6.86 | 5.93 | 0.0046 | 775000 |
| B14 | – | – | – | – | 3.24 | 2.8 | 0.00362 | 1.29e+06 |
| B15 | – | – | – | – | 2.34 | 2.02 | 0.0026 | 1.29e+06 |
| B16 | 1 | 0.485 | 0.000858 | 1.77e+06 | 1 | 0.864 | 0.00108 | 1.25e+06 |
| B17 | 3.24 | 1.57 | 0.00329 | 2.09e+06 | – | – | – | – |
| B18 | 3.34 | 1.62 | 0.00342 | 2.11e+06 | – | – | – | – |
| B19 | 1.32 | 0.639 | 0.00109 | 1.71e+06 | – | – | – | – |
| B20 | 1.14 | 0.555 | 0.00105 | 1.9e+06 | – | – | – | – |
| B21 | 3.9 | 1.89 | 0.00379 | 2.01e+06 | – | – | – | – |
